Experimental data as given in IntAct's records for PubMed 19151721.

B1: SLAM family member 7 (Mus musculus), Q8BHK6 (parent)
chain: MARFSTYIIFTSVLCQLTVTAASGTLKKVAGALDGSVTFTLNITEIKVDYVVWTFNTFFLAMVKKDGVTSQSSNKERIVFPDGLYSMKLSQLKKNDSGAYRAEIYSTSSQASLIQEYVLHVYKHLSRPKVTIDRQSNKNGTCVINLTCSTDQDGENVTYSWKAVGQGDNQFHDGATLSIAWRSGEKDQALTCMARNPVSNSFSTPVFPQKLCEDAATDLTSLRGILYILCFSAVLILFAVLLTIFHTTWIKKGKGCEEDKKRVDRHQEMPDLCPHLEENADYDTIPYTEKRRPEEDAPNTFYSTVQIPKVVKSPSSLPAKPLVPRSLSFENVI
partner: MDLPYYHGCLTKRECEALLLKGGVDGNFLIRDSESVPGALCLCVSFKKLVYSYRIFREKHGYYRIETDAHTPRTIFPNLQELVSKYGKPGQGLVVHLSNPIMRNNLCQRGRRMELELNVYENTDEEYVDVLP

Variants of: B1
Settings: with sh21b_mouse Sh2d1b

effect of a mutation on the interaction	Variant
disrupting interaction	Y302F
disrupting interaction	Y282F;Y287F;Y302F
